Test: yeast display, Sf9 membrane polyspecificity reagent, FACS + sequencing; frameworks hold sequencing errors
Procedure, shortened: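 Nanobodies came from a synthetic yeast display library in Saccharomyces cerevisiae BJ5465, induced with galactose for 36–48 hours and stained for 1 hour at 4 °C with 10% biotinylated, detergent-solubilized Sf9 membrane reagent. Cells were enriched on streptavidin microbeads and then FACS-sorted, with low and high (top ~1%) gates set on anti-HA fluorescence for expression and streptavidin fluorescence for reagent binding. Each polyreactivity label reflects the gate a clone came from. Genes were amplified by colony PCR, sequenced by MiSeq 2 × 250 and filtered by CDR length.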
With “QVQLVESGGGLVQAGGSLRLSCAASGSTFAYYAMGWYRQAPGKERELVAAISASGSRTYYADSVKGRFTISRDNAKNTVYLQMNSLKPEDTAVYYCAALQYRRKIPTAYAGDYWGQGTQVTVSS” the “polyreactivity (PSR sort gate)” value was “high polyreactivity”. In the case of “QVQLVESGGGLVQAGGSLRLSCAASGSTFAYYAMGWYRQAPGKERELVAAISYSGGITYYADSVKGRFTISRDNAKNTVYLQMNSLKPEDTAVYYCNKLFAQEFDYWGQGTQVTVSS”, the “polyreactivity (PSR sort gate)” value is reported as “high polyreactivity”. For “QVQLVESGGGLVQAGGSLRLSCAASGSTFAYYAMGWYRQAPGKERELVAGISGSGGSTYYADSVKGRFTISRDNAKNTVYLQMNSLKPEVTAVYYCAVVQRSKRTYPWYDYWGQGTQVTVSS”, the “polyreactivity (PSR sort gate)” value was “low polyreactivity”. With “QVQLVESGGGLVQAGGSLRLSCAASGSTFAYYAMGWYRQAPGKERELVAVISVRVGSTYYADSVKGRFTISRDNAKNTVYLQMNSLNPEDTAVYYCATDFFYHSLSSRQDGDYWGQGTQVTVSS” the “polyreactivity (PSR sort gate)” value was “high polyreactivity”. In the case of “QVQLVESGGGLVQAGGSLRLSCAASGSTFAYYAMGWYRQAPGKEREMVAAISSGGSTYYADSVKGRFTISRDNAKNTVYLQMNSLKPEDTAVYYCNAEVPGHYFDGWYFYDFDYWGQGTQVTVSS”, the “polyreactivity (PSR sort gate)” value is reported as “low polyreactivity”. With “QVQLVESGGGLVQAGGSLRLSCAASGSTFAYYAMVWYRQAPGKERELVAAISTIAGRTYYADSVKGRFTISRDNAKNTVYLQMNSLKPEDTAVYYCAVQFLYVVTLYSDYDYWGQGTQVTVSS” the “polyreactivity (PSR sort gate)” value was “high polyreactivity”. In the case of “QVQLVESGGGLVQAGGSLRLSCAASGSTFAYYMGWYRQAPGKERELVASISTYYADSVKGRFTISRDNAKNTVYLQMNSLKPEDTAVYYCNKAYYYVFTNYSTALAGDWGQGTQVTVSS”, the “polyreactivity (PSR sort gate)” value is reported as “low polyreactivity”. With “QVQLVESGGGLVQAGGSLRLSCAASGSTFAYYTMGWYRQAPGKERELVAAITSGGRTSYADSVKGRFTISRDNAKNTVYLQMNSLKPEDTAVYYCAKGRKPGYYYWGQGTQVTVSS” the “polyreactivity (PSR sort gate)” value was “high polyreactivity”. In the case of “QVQLVESGGGLVQAGGSLRLSCAASGSTFAYYTMGWYRQAPGKERELVAAITSGGRTTYADSVKGRFTISRDNAKNTVYLQMNSLKPEDTAVYYCAKGRKPGYYYWGQGTQVTVSS”, the “polyreactivity (PSR sort gate)” value is reported as “high polyreactivity”. For “QVQLVESGGGLVQAGGSLRLSCAASGSTFCDNAMGWYRQAPGNERELVAAISMSGGRTYYADSVKGRFTISRDNAKNTVYLQMNSLKPEDTAVYYCAAVGNRRYYFGYDYWGQGSQVTVSS”, the “polyreactivity (PSR sort gate)” value was “high polyreactivity”. With “QVQLVESGGGLVQAGGSLRLSCAASGSTFCDNSMGWYRQAPGKERELVAAITTSGTSTYYADSVKGRFTISRDNAKNTVYLQMNSLKPEDTAVYYCAAPYGVARFGDYLDDYDYWGQGTQVTVSS” the “polyreactivity (PSR sort gate)” value was “low polyreactivity”. For “QVQLVESGGGLVQAGGSLRLSCAASGSTFCDYTMGVYRQAPGKERELLAAISRRGGITYYADSVKGRFTISRDNAKNTVYLQMNSLKPEDTAVYYCNKVYNPKSYIQYDYWGQGTQVTVSS”, the “polyreactivity (PSR sort gate)” value was “high polyreactivity”. In the case of “QVQLVESGGGLVQAGGSLRLSCAASGSTFDAYAMGWYRQAPGKERELVAPISWSGGGTTYADSVKGRFTISRDNAKNTVYLLMNSLKPEDTAVYYCNAKGSVRDFQDTLRPEGDYWGQGTQVTVSS”, the “polyreactivity (PSR sort gate)” value is reported as “low polyreactivity”. In the case of “QVQLVESGGGLVQAGGSLRLSCAASGSTFDDNAMGWYRQAPGKERELVAVISSGGSTNYADSVKGRFTISRDNAKNTVYLQMNSLKPEDTAVYYCAAAKLTRRYRYGYWGQGTQVTVSS”, the “polyreactivity (PSR sort gate)” value is reported as “high polyreactivity”. In the case of “QVQLVESGGGLVQAGGSLRLSCAASGSTFDDNDMGWYRQAPGKERELVAAISWSGGSTTYADSVKGRFTISRDYAKNTVYLQMNSLKPEDTAVYYCAADWYYWGFIFDYWGQGTQVTVSS”, the “polyreactivity (PSR sort gate)” value is reported as “high polyreactivity”. In the case of “QVQLVESGGGLVQAGGSLRLSCAASGSTFDDYALGWYRQAPGKERELVAAISFSSGSTYYADSVKGRFTISRDNAKNTVYLQMNSLKPEDTAVYYCAAEKYGWTYYFSWQEDYWGQGTQVTVSS”, the “polyreactivity (PSR sort gate)” value is reported as “high polyreactivity”. In the case of “QVQLVESGGGLVQAGGSLRLSCAASGSTFDDYAMGWYRPAPGKERELVAAISSDGSTNYADSVKGRFTISRDNAKNTVYLQMNSLKPEDTAVYYCAAESPWDWGYWFEALYDYWGQGTQVNVSS”, the “polyreactivity (PSR sort gate)” value is reported as “high polyreactivity”. With “QVQLVESGGGLVQAGGSLRLSCAASGSTFDDYAMGWYRQAPGKERELVAAISSSGGRTYYADSVKGRFTISRDNAKNTVYLQMNSLKPEDTAVYYCNADSYRSRGRYEFGRFDYWGQGTQVTVSS” the “polyreactivity (PSR sort gate)” value was “high polyreactivity”. For “QVQLVESGGGLVQAGGSLRLSCAASGSTFDDYAMVWYRQAPGKDREFVAAISFSGDSTYYADSVKGRFTISRDNAKNTVYLQMNRLKPEDTAVYYCAAEVPAEENGYAYDYWGQGTQVTVSS”, the “polyreactivity (PSR sort gate)” value was “low polyreactivity”. In the case of “QVQLVESGGGLVQAGGSLRLSCAASGSTFDENAMGWYRQAPGKERELVAGITTNGGSTSYADSVKGRFTISRDNAKNTVYLQMNSLKPEDTAVYYCAKGLYVQFDYWGQGSQVTVSS”, the “polyreactivity (PSR sort gate)” value is reported as “low polyreactivity”. With “QVQLVESGGGLVQAGGSLRLSCAASGSTFDFNAMGWYRQAPWKEMELVADITRDGSTNYADSVKGRFTISRDNAKNTVYLQMNSLNPEDTAVYYCNAANRPGISGITTQGYYWGQGTQVTVSA” the “polyreactivity (PSR sort gate)” value was “low polyreactivity”. In the case of “QVQLVESGGGLVQAGGSLRLSCAASGSTFDFNVMGWYRQAPGKERELVAAISSGSSTYYADSVKGRFTISRDNAKNTVYLQMNSLKPEDTAVYYCARRYQLVRTRYYYWGQGTQVTVSS”, the “polyreactivity (PSR sort gate)” value is reported as “high polyreactivity”. With “QVQLVESGGGLVQAGGSLRLSCAASGSTFDGYAMGWYRQAPGKERELVAAISYSGSSTYYADSVKGRFTISGDNAKNTVYLQMNSLKPEDTAVVYCAVDDTHPFGPDGGGDYWGQGTQVTVSS” the “polyreactivity (PSR sort gate)” value was “low polyreactivity”. With “QVQLVESGGGLVQAGGSLRLSCAASGSTFDHNAMGWYRQAPGKEREFVAAISARGGITYYADSVKGRFTISRDNAKNTVYLQMNSLKPEDTAVYYCADVFGDYWSSQWSYAYGYWGLGTQVTVSS” the “polyreactivity (PSR sort gate)” value was “high polyreactivity”. In the case of “QVQLVESGGGLVQAGGSLRLSCAASGSTFDHNVMGWYRQAPGKERELVAAISGSGGSTYYADSVKGRFTISRDNAKNTVYLQMNSLKPEDTAVYYCAARYYVGHRGYYSWGQGTQVTVSS”, the “polyreactivity (PSR sort gate)” value is reported as “high polyreactivity”. In the case of “QVQLVESGGGLVQAGGSLRLSCAASGSTFDHYDMGWSIPAPGKERELVAAISYSGSTTVYADSVKGRFTISRDNAMNTVYLQMNSLKPEDTAVYYCAASGDVIQSPMDYWGQGTQVTVSS”, the “polyreactivity (PSR sort gate)” value is reported as “low polyreactivity”. For “QVQLVESGGGLVQAGGSLRLSCAASGSTFDINAMGWYRQAPGKERELVAAITWRSGRTYYADSVKGRFTISRDNAKNNVYLQMNSLKPEDTAVYYCAADDTSYYIYSYDYWGQGTQVTVSS”, the “polyreactivity (PSR sort gate)” value was “low polyreactivity”. In the case of “QVQLVESGGGLVQAGGSLRLSCAASGSTFDINVMGWYRQAPGKERELVAAITWSGGRTYYADSVKGRFTISRDNAKNTVYLQMNSLKPEDTAVYYCAARVGRGVYRYVPREFDYWGQGTQVTVSS”, the “polyreactivity (PSR sort gate)” value is reported as “high polyreactivity”. With “QVQLVESGGGLVQAGGSLRLSCAASGSTFDIYAMGWYRQAPGKERELVAVISGGDGSTYYADSVKGRFTISRDNAKNTVYLQMNSLKPEDTAVYYCAADYISPGYCDGEYDCWGQGTQVTVSS” the “polyreactivity (PSR sort gate)” value was “low polyreactivity”. With “QVQLVESGGGLVQAGGSLRLSCAASGSTFDIYAMGWYRQAPGKERKLVAVISGGDGSTYYADSVKGRFTISRDNAKNTVYLQMNSLKPEDTAVYYCEYDYWGQGTQVTVSS” the “polyreactivity (PSR sort gate)” value was “low polyreactivity”.

Reference: the nanobody polyreactivity screen of Harvey et al. (2022)
